# Where two headings read alike, the source gives them in different places.
# Experiments:
# human 4-1BB on cells [1] = target: T1, human 4-1BB on cells (human, UniProt Q07011 24-255); experiment: cell-based or functional assay
# [2] = target: mouse 4-1BB on activated mouse splenocytes (mouse, UniProt P20334 24-256); experiment: flow cytometry, activated mouse T cells
# Description: Cells were incubated for 30 min at 4° C., washed twice with 200 μL/well FACS-buffer and resuspended for fixation with 50 μL/well DPBS containing 1% (v/v) formaldehyde. The next day cells were resuspended in 200 μL/well FACS buffer and acquired using the 2-laser Cantoll (BD Bioscience with DIVA software) or 5-laser Fortessa (BD Bioscience with DIVA software). Gates were set on CD8⁺ and CD4⁺ T cells and the median fluorescence intensity (MFI) of the secondary detection antibody was used to analyze binding of primary antibodies. Using Graph Pad Prism (Graph Pad Software Inc.) data was baselined by subtracting the blank values (no primary antibody added) and the EC₅₀ values were calculated using non-linear regression curve fit (robust fit).
# [3] = target: T2, cynomolgus 4-1BB on activated cynomolgus PBMC (cynomolgus, UniProt Q07011 24-255 (human entry)); experiment: flow cytometry, activated cynomolgus PBMC
# T2 chain: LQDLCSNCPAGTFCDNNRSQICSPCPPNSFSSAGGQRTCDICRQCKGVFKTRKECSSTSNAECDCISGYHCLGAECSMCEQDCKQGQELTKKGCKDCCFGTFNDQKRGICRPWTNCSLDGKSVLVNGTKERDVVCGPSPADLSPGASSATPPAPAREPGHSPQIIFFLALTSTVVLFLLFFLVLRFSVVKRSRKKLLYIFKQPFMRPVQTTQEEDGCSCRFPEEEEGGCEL
# Description: Cells were washed twice with FACS buffer and resuspended in 100 μL/well FACS buffer supplied with 0.2 μg/mL DAPI to discriminated dead from living cells. Cells were immediately acquired using a 5-laser Fortessa (BD Bioscience with DIVA software). Gates were set on CD8⁺ and CD4⁺ T cells and the median fluorescence intensity (MFI) of the secondary detection antibody was used to analyze binding of primary antibodies. Using Graph Pad Prism (Graph Pad Software Inc.) data was baselined by subtracting the blank values (no primary antibody added) and the EC₅₀ values were calculated using non-linear regression curve fit (robust fit).
# [4] = target: T3, recombinant human 4-1BB Fc(kih) (human, UniProt P0DOX5 223-449 = IgG part, biotin on C-terminal Avi tag where used biotinylated); experiment: SPR, captured IgG, 4-1BB Fc(kih) analyte
# T3 construct: also called hu4-1BB; biotinylated human 4-1BB
# Description: (§1) All SPR experiments were performed on a Biacore T200 at 25° C. with HBS-EP as running buffer (0.01 M HEPES pH 7.4, 0.15 M NaCl, 3 mM EDTA, 0.005% Surfactant P20, Biacore, Freiburg/Germany).
# Anti-human Fab antibody (Biacore, Freiburg/Germany) was directly coupled on a CM5 chip at pH 5.0 using the standard amine coupling kit (Biacore, Freiburg/Germany). The immobilization level was approximately 7500 RU. […] The dissociation was monitored for 120 seconds. Bulk refractive index differences were corrected for by subtracting the response obtained on reference flow cell.
# human 4-1BB on cells [5] = target: T1, human 4-1BB on cells; experiment: flow cytometry, activated human CD8 T cells
# Description: (§2) Plates were centrifuged 4 minutes with 400×g at 4° C. and supernatant was discarded. […] Afterwards cells were washed once with 200 μL/well cold FACS buffer (DPBS supplied with 2% (v/v) FBS, 5 mM EDTA pH8 (Amresco, Cat. No. E177) and 7.5 mM sodium azide (Sigma-Aldrich S2002)). […] Cells were washed four times with 200 μL/well 4° C.
# Cells were washed twice with 200 μL FACS buffer/well and fixated by resuspending in 50 μL/well DPBS containing 1% Formaldehyde (Sigma, HT501320-9.5L). Cells were acquired the same or next day using a 3-laser Canto II (BD Bioscience with DIVA software) or a 5-laser Fortessa (BD Bioscience with DIVA software) or 3-laser MACSQuant Analyzer 10 (Miltenyi Biotech). Gates were set on CD8⁺ and CD4⁺ T cells and the median fluorescence intensity (MFI) or geo mean of fluorescence intensity of the secondary detection antibody was used to analyze binding of primary antibodies. Using Graph Pad Prism (Graph Pad Software Inc.) data was baselined by subtracting the blank values (no primary antibody added) and the EC50 values were calculated using non-linear regression curve fit (robust fit).
# [6] = target: recombinant cynomolgus 4-1BB Fc(kih) (cynomolgus, UniProt P0DOX5 223-449 = IgG part, biotin on C-terminal Avi tag where used biotinylated); experiment: SPR, captured IgG, cyno 4-1BB Fc(kih) analyte
# Description: as §1
# Anti-human Fab antibody (Biacore, Freiburg/Germany) was directly coupled on a CM5 chip at pH 5.0 using the standard amine coupling kit (Biacore, Freiburg/Germany). The immobilization level was approximately 9000 RU.
# [7] = target: T4, recombinant murine 4-1BB Fc(kih) (murine, UniProt P0DOX5 223-449 = IgG part, biotin on C-terminal Avi tag where used biotinylated); experiment: phage display, Fab screening
# T4 construct: also called mu4-1BB
# human OX40 on cells [8] = target: T5, human OX40 on cells (human, UniProt P43489 29-277); experiment: cell-based or functional assay
# T5 sequence: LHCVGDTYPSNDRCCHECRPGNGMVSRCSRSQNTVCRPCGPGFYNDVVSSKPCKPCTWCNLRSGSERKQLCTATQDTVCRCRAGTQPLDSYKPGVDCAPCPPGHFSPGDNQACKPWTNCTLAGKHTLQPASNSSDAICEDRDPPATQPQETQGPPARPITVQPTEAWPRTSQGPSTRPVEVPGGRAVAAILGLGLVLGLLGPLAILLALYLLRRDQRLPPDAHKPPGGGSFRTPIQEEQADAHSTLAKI
# human OX40 on cells [9] = target: T5, human OX40 on cells; experiment: cell-based or functional assay; remark: listed apart in the source
# [10] = target: T6, human fibroblast activation protein (huFAP) on cells (human, UniProt Q12884 1-760); experiment: flow cytometry, WM266-4 cells
# T6 construct: also called NIH/3T3-huFAP clone 39; NIH/3T3-huFAP clone 19
# [11] = target: T7, recombinant human OX40 His (human); experiment: SPR, captured IgG, OX40 His analyte
# T7 construct: ectodomain with avi and hexahistidine tag; also called human Ox40 avi His
# T7 chain: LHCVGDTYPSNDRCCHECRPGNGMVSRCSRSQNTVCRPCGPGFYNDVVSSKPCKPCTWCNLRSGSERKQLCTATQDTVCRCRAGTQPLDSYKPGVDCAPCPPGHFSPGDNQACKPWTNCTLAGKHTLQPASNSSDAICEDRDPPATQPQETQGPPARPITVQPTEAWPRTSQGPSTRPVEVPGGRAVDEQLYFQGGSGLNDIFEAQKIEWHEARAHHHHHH
# Description: as §1
# Setup 2) Anti-human Fc antibody (Biacore, Freiburg/Germany) was directly coupled on a CM5 chip at pH 5.0 using the standard amine coupling kit (Biacore, Freiburg/Germany). The immobilization level was approximately 8000 RU. […] The dissociation was monitored for 120 seconds. Bulk refractive index differences were corrected for by subtracting the response obtained on reference flow cell.
# [12] = target: T8, recombinant human OX40 Fc(kih) (human, UniProt P0DOX5 223-449 = IgG part, biotin on C-terminal Avi tag where used biotinylated); experiment: SPR, captured IgG, OX40 Fc(kih) analyte
# T8 construct: antigen Fc knob chain plus Fc hole chain; also called monomeric human OX40 antigen Fc(kih) fusion; biotinylated human OX40
# Description: as §1
# Setup 1) Anti-human Fab antibody (Biacore, Freiburg/Germany) was directly coupled on a CM5 chip at pH 5.0 using the standard amine coupling kit (Biacore, Freiburg/Germany). The immobilization level was approximately 9000 RU. […] The dissociation was monitored for 120 seconds. Bulk refractive index differences were corrected for by subtracting the response obtained on reference flow cell.
# human OX40 on cells [13] = target: T5, human OX40 on cells; experiment: flow cytometry, activated human CD4 T cells
# Description: Plates were centrifuged 4 minutes with 400×g and at 4° C. and supernatant was flicked off. Cell were washed once with 200 μL 4° C. cold FACS buffer (DPBS supplied with 2% FBS, 5 mM EDTA pH8 (Amresco, Cat. No. E177) and 7.5 mM Sodium azide (Sigma-Aldrich S2002)). […] Plates were washed four times with 200 μL/well 4° C. FACS buffer to remove unbound construct.
# Plates where washed twice with 200 μL/well 4° C.
# human OX40 on cells [14] = target: T5, human OX40 on cells; experiment: flow cytometry, activated human CD4 T cells; remark: listed apart in the source
# [15] = target: recombinant cynomolgus OX40 Fc(kih) (cynomolgus, UniProt P0DOX5 223-449 = IgG part, biotin on C-terminal Avi tag where used biotinylated); experiment: SPR, captured IgG, cyno OX40 Fc(kih) analyte
# Description: as §1
# Anti-human Fab antibody (Biacore, Freiburg/Germany) was directly coupled on a CM5 chip at pH 5.0 using the standard amine coupling kit (Biacore, Freiburg/Germany). The immobilization level was approximately 9000 RU. […] The dissociation was monitored for 120 seconds. Bulk refractive index differences were corrected for by subtracting the response obtained on reference flow cell.
# [16] = target: T9, cynomolgus OX40 on activated cynomolgus PBMC (cynomolgus, UniProt P43489 29-214 (human entry)); experiment: flow cytometry, activated cynomolgus CD4 T cells
# T9 construct: whole, on cells
# T9 chain: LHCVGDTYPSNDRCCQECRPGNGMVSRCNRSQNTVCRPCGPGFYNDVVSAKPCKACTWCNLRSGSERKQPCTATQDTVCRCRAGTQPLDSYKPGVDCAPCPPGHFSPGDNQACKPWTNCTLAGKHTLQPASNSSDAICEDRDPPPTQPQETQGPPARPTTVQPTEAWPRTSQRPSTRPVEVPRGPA
# Description: Then, plates were washed four times with 200 μL/well 4° C. FACS buffer. […] Plates where washed twice with 200 μL/well 4° C.
# [17] = target: T10, huOX40-SNAP fusion on Hek293 EBNA cells (human, UniProt P43489 29-277, labeled with the FRET donor Terbium); experiment: cell FRET competition against d2-labeled (49B4) IgG
# T10 construct: not shown: SNAP tag
# T10 sequence: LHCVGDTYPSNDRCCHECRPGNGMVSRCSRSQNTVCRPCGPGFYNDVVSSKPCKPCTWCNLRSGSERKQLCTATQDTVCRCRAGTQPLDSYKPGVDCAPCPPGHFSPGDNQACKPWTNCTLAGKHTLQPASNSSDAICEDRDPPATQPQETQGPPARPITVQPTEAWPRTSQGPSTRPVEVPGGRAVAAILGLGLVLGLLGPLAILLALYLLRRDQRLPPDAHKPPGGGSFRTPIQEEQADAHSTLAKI
# [18] = target: T8, recombinant human OX40 Fc(kih); experiment: phage display, Fab ELISA
# [19] = target: T11, recombinant human GITR Fc(kih) (human, UniProt P0DOX5 223-449 = IgG part, biotin on C-terminal Avi tag where used biotinylated); experiment: SPR, GITR Fc(kih) on SA chip, FAP second analyte
# T11 construct: also called hu GITR-Fc; human monomeric GITR-Fc fusion
# Description: (§3) All SPR experiments were performed on a Biacore T200 at 25° C. with HBS-EP as running buffer (0.01 M HEPES pH 7.4, 0.15 M NaCl, 3 mM EDTA, 0.005% Surfactant P20, Biacore, Freiburg/Germany). […] Immobilization levels up to 1000 resonance units (RU) were used. The bispecific constructs targeting GITR and FAP were passed at a concentration range of 200 nM with a flow of 30 μL/minute through the flow cells over 90 seconds and dissociation was set to zero sec. Human FAP was injected as second analyte with a flow of 30 μL/minute through the flow cells over 90 seconds at a concentration of 500 nM. The dissociation was monitored for 120 sec. Bulk refractive index differences were corrected for by subtracting the response obtained in a reference flow cell, where no protein was immobilized.
# [20] = target: T6, human fibroblast activation protein …; experiment: flow cytometry, 3T3-huFAP
# [21] = target: T12, human GITR on HEK cells (HEK-GITR) (human, UniProt Q9Y5U5 26-241); experiment: flow cytometry, HEK-GITR
# T12 construct: also called cell surface expressed human GITR
# T12 sequence: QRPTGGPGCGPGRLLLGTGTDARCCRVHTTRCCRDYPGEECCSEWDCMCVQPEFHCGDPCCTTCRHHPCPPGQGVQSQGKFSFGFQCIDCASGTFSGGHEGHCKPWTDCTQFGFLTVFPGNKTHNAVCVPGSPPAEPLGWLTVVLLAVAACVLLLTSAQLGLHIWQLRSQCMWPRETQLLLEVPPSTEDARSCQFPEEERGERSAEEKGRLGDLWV
# Description: Cells were washed twice with complete media and once with PBS+2% FBS before adjusting cell density to 1×10⁷ cells/mL in PBS+2% FBS.
# Plates were centrifuged at 4° C., 3 minutes at 600×g and supernatant was flicked off. Cells were resuspended in 50 μL/well of 4° C. cold PBS+2% FBS containing titrated anti-GITR antibody constructs for 120 minutes at 4° C. Plates were washed twice with 200 μL/well 4° C. PBS+2% FBS to remove unbound construct. […] Plates were centrifuged at 4° C. for 3 minutes at 600×g and washed twice with PBS+2% FBS. […] Plates were centrifuged at 4° C., 3 minutes at 600×g and supernatant was flicked off.
# [22] = target: T13, human FAP (His-tagged ectodomain) (human, UniProt Q12884 27-760); experiment: SPR, GITR Fc(kih) on SA chip, FAP second analyte
# T13 construct: SPR texts say 'human FAP' or 'His-tagged ... dimeric FAP'; also called hu FAP; human FAP (analyte 2)
# Description: as §3
# human 4-1BB on cells [23] = target: T1, human 4-1BB on cells; experiment: cell-based or functional assay; remark: listed apart in the source
# [24] = target: T6, human fibroblast activation protein …; experiment: flow cytometry, NIH/3T3-huFAP clone 19
# Description: Cells were maintained in the presence of 1.5 μg/mL puromycin (InvivoGen, Cat.-No.: ant-pr-5). […] Plates were incubated for 30 minutes at 4° C. and washed once with 200 μL 4° C. cold DPBS buffer. […] Cells were washed twice with 200 μL 4° C. FACS buffer and then resuspended in 50 μL/well DPBS containing 1% Formaldehyde for fixation. The same or the next day cells were resuspended in 100 μL FACS-buffer and acquired using 5-laser LSR-Fortessa (BD Bioscience with DIVA software) or MACSQuant Analyzer 10 (Miltenyi Biotec).
# human 4-1BB on cells [25] = target: T1, human 4-1BB on cells; experiment: flow cytometry, activated human CD8+ T cells
# Description: as §2
# Cells were washed twice with 200 μL FACS buffer/well and fixated by resuspending in 50 μL/well DPBS containing 1% Formaldehyde (Sigma, HT501320-9.5L). Cells were acquired the same or next day using 3-laser MACSQuant Analyzer 10 (Miltenyi Biotech). Gates were set on CD8⁺ and CD4⁺ T cells and the geo mean of fluorescence intensity (MFI) of the secondary detection antibody was used to analyze binding of primary antibodies. Using Graph Pad Prism (Graph Pad Software Inc.) data was baselined by subtracting the blank values (no primary antibody added) and the EC₅₀ values were calculated using non-linear regression curve fit (robust fit).
# Chain of mouse 4-1BB on activated mouse splenocytes (P20334 24-256 limits assumed): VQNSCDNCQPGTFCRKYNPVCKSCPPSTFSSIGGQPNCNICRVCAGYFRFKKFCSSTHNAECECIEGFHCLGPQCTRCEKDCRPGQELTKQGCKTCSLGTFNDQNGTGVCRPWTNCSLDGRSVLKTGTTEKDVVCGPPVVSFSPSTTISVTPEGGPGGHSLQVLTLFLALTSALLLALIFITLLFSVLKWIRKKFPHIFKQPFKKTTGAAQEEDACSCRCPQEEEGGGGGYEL
binder,measurement,setting,value
"9B11 P329GLALA IgG1 (antibody, V domains shown, anti-4-1BB) VH: QVQLVQSGAEVKKPGSSVKVSCKASGGTFSSYAISWVRQAPGQGLEWMGGIIPIFGTANYAQKFQGRVTITADKSTSTAYMELSSLRSEDTAVYYCARSSGAYPGYFDYWGQGTTVTVSS VL: not shown",EC50 of increase of IFNγ secretion in activated CD8+ T cells (surface-immobilized IgG),human 4-1BB on cells [1],0.12 nM
same,binding result,[2],no binding
same,binding result,[3],binds
same,Kd,[4],140 nM
same,koff,[4],0.0039 s⁻¹
same,kon,[4],27000 M⁻¹ s⁻¹
same,EC50,human 4-1BB on cells [5],4.49 nM
same,Kd,[6],78 nM
same,koff,[6],0.002 s⁻¹
same,kon,[6],26000 M⁻¹ s⁻¹
"clone 20G2 Fab (Fab, V domains shown, phage library Fab with CH1/CL and tags) VH: QVQLVQSGAEVKKPGSSVKVSCKASGGTFSSYAISWVRQAPGQGLEWMGGIIPIFGTANYAQKFQGRVTITADKSTSTAYMELSSLRSEDTAVYYCARSYYWESYPFDYWGQGTTVTVSS VL: DIQMTQSPSTLSASVGDRVTITCRASQSISSWLAWYQQKPGKAPKLLIYDASSLESGVPSRFSGSGSGTEFTLTISSLQPDDFATYYCQQQHSYYTFGQGTKVEIK",binding result,[7],binds
"49B4 P329GLALA IgG1 (antibody, V domains shown, anti-OX40; sometimes misprinted 49B9; also called 49B4 IgG1; hu IgG1 (49B4)) VH: QVQLVQSGAEVKKPGSSVKVSCKASGGTFSSYAISWVRQAPGQGLEWMGGIIPIFGTANYAQKFQGRVTITADKSTSTAYMELSSLRSEDTAVYYCAREYYRGPYDYWGQGTTVTVSS VL: DIQMTQSPSTLSASVGDRVTITCRASQSISSWLAWYQQKPGKAPKLLIYDASSLESGVPSRFSGSGSGTEFTLTISSLQPDDFATYYCQQYSSQPYTFGQGTKVEIKR",EC50 of NFκB activation in HeLa_hOx40_NFκB_luc1 reporter cells with secondary anti-human IgG Fcγ antibody,human OX40 on cells [8],2.42 nM
same,EC50 of rescuing suboptimal TCR stimulation with plate-immobilized anti-OX40 binder (preactivated human CD4 T cells),human OX40 on cells [9],0.591 nM
same,binding result,[10],no binding
same,Kd,[11],460 nM
same,koff,[11],0.67 s⁻¹
same,kon,[11],1.4e+06 M⁻¹ s⁻¹
same,Kd,[12],510 nM
same,koff,[12],0.13 s⁻¹
same,kon,[12],250000 M⁻¹ s⁻¹
same,EC50,human OX40 on cells [13],4.19 nM
same,EC50,human OX40 on cells [14],907 nM
same,Kd,[15],350 nM
same,koff,[15],0.038 s⁻¹
same,kon,[15],110000 M⁻¹ s⁻¹
same,EC50,[16],0.05 nM
same,EC50,[17],12.7 nM
"clone 17A9 Fab (Fab, V domains shown, phage library Fab with CH1/CL and tags) VH: not shown VL: SSELTQDPAVSVALGQTVRITCQGDSLRSYYASWYQQKPGQAPVLVIYGKNNRPSGIPDRFSGSSSGNTASLTITGAQAEDEADYYCNSRVMPHNRVFGGGTKLTV",binding result,[18],binds
"(GITR-FAP) [8A06] 4+1 construct (bispecific antibody, human IgG1, lambda, L234A L235A) heavy 1: not shown heavy 2: not shown light: SSELTQDPAVSVALGQTVRITCQGDSLRSYYASWYQQKPGQAPVLVIYGKNNRPSGIPDRFSGSSSGNTASLTITGAQAEDEADYYCNSPQTSGSAVFGGGTKLTVLGQPKAAPSVTLFPPSSEELQANKATLVCLISDFYPGAVTVAWKADSSPVKAGVETTTPSKQSNNKYAASSYLSLTPEQWKSHRSYSCQVTHEGSTVEKTVAPTECS",binding result,[19],binds
"(GITR-FAP) [8A06] 4+2 construct (bispecific antibody, human IgG1, lambda, L234A L235A) heavy: not shown light 1: SSELTQDPAVSVALGQTVRITCQGDSLRSYYASWYQQKPGQAPVLVIYGKNNRPSGIPDRFSGSSSGNTASLTITGAQAEDEADYYCNSPQTSGSAVFGGGTKLTVLGQPKAAPSVTLFPPSSEELQANKATLVCLISDFYPGAVTVAWKADSSPVKAGVETTTPSKQSNNKYAASSYLSLTPEQWKSHRSYSCQVTHEGSTVEKTVAPTECS light 2: EIVLTQSPGTLSLSPGERATLSCRASQSVSRSYLAWYQQKPGQAPRLLIIGASTRATGIPDRFSGSGSGTDFTLTISRLEPEDFAVYYCQQGQVIPPTFGQGTKVEIKSSASTKGPSVFPLAPSSKSTSGGTAALGCLVKDYFPEPVTVSWNSGALTSGVHTFPAVLQSSGLYSLSSVVTVPSSSLGTQTYICNVNHKPSNTKVDKKVEPKSC",binding result,[20],binds
same,EC50,[21],3.85 nM
same,binding result,[22],binds
"12B3/FAP P329GLALA IgG1 2+2 (bispecific antibody, also called 12B3×FAP (28H1) 2+2) heavy: not shown light 1: not shown light 2: EIVLTQSPGTLSLSPGERATLSCRASQSVSRSYLAWYQQKPGQAPRLLIIGASTRATGIPDRFSGSGSGTDFTLTISRLEPEDFAVYYCQQGQVIPPTFGQGTKVEIKSSASTKGPSVFPLAPSSKSTSGGTAALGCLVKDYFPEPVTVSWNSGALTSGVHTFPAVLQSSGLYSLSSVVTVPSSSLGTQTYICNVNHKPSNTKVDKKVEPKSCD","EC50 of NFκB/luciferase activation, 4-1BB reporter HeLa with NIH/3T3-huFAP clone 19",human 4-1BB on cells [23],0.2 nM
same,EC50,[24],12.2 nM
same,EC50,human 4-1BB on cells [25],2 nM

# Source: patent US20220073646A1 (Hoffmann-La Roche, published 2022)
